{
  "source": "patent US20210380697A1",
  "about": "(HUMMINGBIRD BIOSCIENCE PTE, published 2021)",
  "binders": {"B1": {"name": "IGN175A IgG1 (antibody, V domains shown)", "VH": "QVQLQQSGAELMKPGASVKISCKATGYTFSTHWIEWVKQRPGHGLEWIGEILPGSGSTSYNEKFKGKATFTADTSSNTAYMQLSSLTSEDSAVYYCARWLLYYYAMDYWGQGTSVTVSS", "VL": "DVLMTQTPLSLPVSLGDQASISCRSSQSIVHSNGNTYLEWYLQKPGQSPKLLIYKLSNRFSGVPDRFSGSGSGTDFTLKISRVEAEDLGVYYCFQGSHFPYTFGGGTKLEIKR", "notes": "Prior-art comparator (WO 2014/197849)"}, "B2": {"name": "anti-VISTA clone V4-C1 IgG1 (antibody, V domains shown)", "VH": "QVQLQESGPGLVKPSDTLSLTCTVSGYSITSDYAWNWIRQTPGKGLEWIGYITYSGYISYNPSLRSRVTISRDTSKNQFSLKLSSVTAADTAVYSCARALYYPWYFDVWGTGTTVTVSS", "VL": "EIVITQSPATLSLSPGERATLSCRASSSVGYIHWYQQKPGQAPRPLIYATSNRATGIPARFSGSGSGTDNTLTISSLEPEDSAVYYCQQWSSYPPITFGGGTKLEVKR"}},
  "key": {"[1]": {"target": "T1, His-tagged human VISTA (human, UniProt Q9H7M9 33-194)", "T1 construct": "Bought recombinant protein with a His tag; also called human VISTA-His recombinant protein; hVISTA", "assay": "BLI epitope binning, human VISTA-His on anti-Penta-His sensor; row = saturating antibody 400 nM; competitor added after it: IGN175A IgG1 300 nM", "procedure": "(§1) Epitope binning experiments were performed by BLI using the Octet QK384 system (ForteBio). […] Biosensors were subsequently treated with 300 nM competing antibody in\n(§2) The following antigen-binding molecules were analysed in the experiment: [1639]"}, "[2]": {"target": "T1, His-tagged human VISTA", "assay": "BLI epitope binning, human VISTA-His on anti-Penta-His sensor; row = saturating antibody 400 nM; competitor added after it: V4-C1 IgG1 300 nM", "procedure": "as §1, §2"}},
  "data": [
    {"binder": "B1", "values": [
      {"measurement": "change in response upon addition of the competing antibody", "setting": "[1]", "result": 0.0454, "unit": "nm"},
      {"measurement": "change in response upon addition of the competing antibody", "setting": "[2]", "result": 1.44, "unit": "nm"}
    ]},
    {"binder": "B2", "values": [
      {"measurement": "change in response upon addition of the competing antibody", "setting": "[1]", "result": 1.07, "unit": "nm"},
      {"measurement": "change in response upon addition of the competing antibody", "setting": "[2]", "result": -0.0158, "unit": "nm"}
    ]}
  ]
}
